Assay [1] has as its target Arginylglycylaspartic acid (RGD) peptide grafted on poly-L-lysine-graft-poly(ethylene glycol) (PLL-g-PEG/PEG-RGD). Put plainly: SPR; Goos-Hänchen lateral position shift read-out on a silver-GST plasmonic substrate; PLL-PEG-RGD immobilised on the GST layer through MPTES; 10 μg/mL integrin proteoliposomes flowed over; running buffer 1:10 dilution of PBS; highest Mn2+ concentration of the series (1 mM); exponential fits of association and dissociation. On the technique in general: In SPR one partner is held on a chip, and binding of the other changes the refractive index at the surface.

Assay [2] shares this target. Put plainly: SPR; Goos-Hänchen lateral position shift read-out on a silver-GST plasmonic substrate; PLL-PEG-RGD immobilised on the GST layer through MPTES; 10 μg/mL integrin proteoliposomes flowed over; running buffer 1:10 dilution of PBS; lowest Mn2+ concentration of the series (1 nM); exponential fits of association and dissociation.

The koff is the rate constant with which the complex falls apart. Take “αIIbβ3 integrin reconstituted into liposomes (integrin-embedded proteoliposomes) (from UniProt P08514 32-1039; P05106 27-788) (complex)”: the kobs in assay [1] is 0.146 min⁻¹; in assay [2], 0.101 min⁻¹. In addition, the koff amounted to 0.00448 s⁻¹ in assay [1] and 0.00957 s⁻¹ in assay [2].

Values taken from PMC10757996.
